Experimental data published in PMC4525382, “Functional characterization and expression analysis of rice δ^1-pyrroline-5-carboxylate dehydrogenase provide new insight into the regulation of proline and arginine catabolism” (Frontiers in Plant Science, 2015).

Key:
[1] = molecular target: T1, rice P5C dehydrogenase (OsP5CDH) (Oryza sativa, UniProt B9FLB9); experiment: NAD(P)H absorbance at […] nm, kinetic analysis; format: biochemical
T1 construct: gene Os05g0536400; mature form lacking the 16-residue predicted mitochondrial transit peptide; N-terminal His6 tag (pET151, TEV-cleavable; tag without effect); E. coli BL21(DE3) pLysS; monomer 57,670 Da; homotetramer 259 kDa
T1 sequence (B9FLB9 17-550): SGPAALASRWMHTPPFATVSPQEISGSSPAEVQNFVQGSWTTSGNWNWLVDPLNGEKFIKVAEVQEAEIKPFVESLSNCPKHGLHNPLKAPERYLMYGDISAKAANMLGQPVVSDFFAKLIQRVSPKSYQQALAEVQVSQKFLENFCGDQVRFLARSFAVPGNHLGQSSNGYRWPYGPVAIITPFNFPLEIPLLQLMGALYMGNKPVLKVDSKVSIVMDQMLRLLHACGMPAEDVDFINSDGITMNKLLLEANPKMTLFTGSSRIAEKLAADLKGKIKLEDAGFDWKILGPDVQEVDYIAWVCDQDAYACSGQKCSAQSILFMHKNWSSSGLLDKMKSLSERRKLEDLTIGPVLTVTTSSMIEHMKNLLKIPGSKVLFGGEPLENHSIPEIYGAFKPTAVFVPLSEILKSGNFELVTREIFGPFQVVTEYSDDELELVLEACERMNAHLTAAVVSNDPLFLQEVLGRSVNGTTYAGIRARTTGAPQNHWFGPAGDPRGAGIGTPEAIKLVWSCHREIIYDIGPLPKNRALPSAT

[2] = molecular target: T1, rice P5C dehydrogenase (OsP5CDH); experiment: NAD(P)H absorbance at […] nm, non-linear regression; format: biochemical
[3] = molecular target: rice P5C dehydrogenase, truncated version lacking the predicted mitochondrial transit peptide (Oryza sativa (rice)); experiment: SEC; gel permeation on Superose 12 HR 10/30; 100 uL of purified protein at 0.5 mg/mL; 50 mM Tris-HCl pH 7.75, 250 mM NaCl (same pattern from 250 mM to 1 M NaCl); column calibrated with mass markers; six runs
[4] = substrate: NC(=O)c1ccc[n+]([C@@H]2O[C@H](COP(=O)(O)OP(=O)(O)OC[C@H]3O[C@@H](n4cnc5c(N)ncnc54)[C@H](OP(=O)(O)O)[C@@H]3O)[C@@H](O)[C@H]2O)c1; experiment: purified protein; format: biochemical, Oryza sativa; conditions: 1 mM L-P5C, 50 mM Hepes-KOH pH 7.5, 35 °C, varied: cofactor
[5] = substrate: O=C(O)[C@@H]1CCC=N1; experiment: purified protein; format: biochemical, Oryza sativa; conditions: 10 mM NAD+ co-substrate, 50 mM Hepes-KOH pH 7.5, 35 °C
[6] = substrate: NC(=O)c1ccc[n+]([C@@H]2O[C@H](COP(=O)(O)OP(=O)(O)OC[C@H]3O[C@@H](n4cnc5c(N)ncnc54)[C@H](O)[C@@H]3O)[C@@H](O)[C@H]2O)c1; experiment: purified protein; format: biochemical, Oryza sativa; conditions: 1 mM L-P5C, 50 mM Hepes-KOH pH 7.5, 35 °C, varied: cofactor

Work on `N=C(N)NCCC[C@H](N)C(=O)O` [arginine] yielded a Ki [1] of 62.3 ± 2.4 mM and an IC50 [2] of 87 ± 11 mM.

“rice P5C dehydrogenase, truncated version lacking the predicted mitochondrial transit peptide (enzyme)” was tested, and the stoichiometry N [3] was 4.

B1: rice P5C dehydrogenase (OsP5CDH) (Oryza sativa Japonica Group) (protein)
chain: T1 sequence (B9FLB9 17-550)
notes: mature form lacking the 16-residue predicted mitochondrial transit peptide; N-terminal His6 tag (pET151, TEV-cleavable; tag without effect); E. coli BL21(DE3) pLysS; monomer 57,670 Da; homotetramer 259 kDa
With B1 the Km [4] was 4695 ± 462 µM, the Vmax [4] was 49.2 ± 1.7 nkat (mg protein)^−1 and the kcat [4] was 3 s⁻¹. The Km [5] was 358 ± 14 µM, the Km [6] was 644 ± 30 µM and the Vmax [6] was 196.9 ± 2.1 nkat (mg protein)^−1. It also gave a kcat [6] of 12 s⁻¹.
